From publication doi:10.1101/2025.01.03.631197

Target: EPHA2 (human (endogenous in HSC-4)) (UniProt P29317)
Experiment: proximity ligation

Chain of UniProt P29317 (P29317 24-976): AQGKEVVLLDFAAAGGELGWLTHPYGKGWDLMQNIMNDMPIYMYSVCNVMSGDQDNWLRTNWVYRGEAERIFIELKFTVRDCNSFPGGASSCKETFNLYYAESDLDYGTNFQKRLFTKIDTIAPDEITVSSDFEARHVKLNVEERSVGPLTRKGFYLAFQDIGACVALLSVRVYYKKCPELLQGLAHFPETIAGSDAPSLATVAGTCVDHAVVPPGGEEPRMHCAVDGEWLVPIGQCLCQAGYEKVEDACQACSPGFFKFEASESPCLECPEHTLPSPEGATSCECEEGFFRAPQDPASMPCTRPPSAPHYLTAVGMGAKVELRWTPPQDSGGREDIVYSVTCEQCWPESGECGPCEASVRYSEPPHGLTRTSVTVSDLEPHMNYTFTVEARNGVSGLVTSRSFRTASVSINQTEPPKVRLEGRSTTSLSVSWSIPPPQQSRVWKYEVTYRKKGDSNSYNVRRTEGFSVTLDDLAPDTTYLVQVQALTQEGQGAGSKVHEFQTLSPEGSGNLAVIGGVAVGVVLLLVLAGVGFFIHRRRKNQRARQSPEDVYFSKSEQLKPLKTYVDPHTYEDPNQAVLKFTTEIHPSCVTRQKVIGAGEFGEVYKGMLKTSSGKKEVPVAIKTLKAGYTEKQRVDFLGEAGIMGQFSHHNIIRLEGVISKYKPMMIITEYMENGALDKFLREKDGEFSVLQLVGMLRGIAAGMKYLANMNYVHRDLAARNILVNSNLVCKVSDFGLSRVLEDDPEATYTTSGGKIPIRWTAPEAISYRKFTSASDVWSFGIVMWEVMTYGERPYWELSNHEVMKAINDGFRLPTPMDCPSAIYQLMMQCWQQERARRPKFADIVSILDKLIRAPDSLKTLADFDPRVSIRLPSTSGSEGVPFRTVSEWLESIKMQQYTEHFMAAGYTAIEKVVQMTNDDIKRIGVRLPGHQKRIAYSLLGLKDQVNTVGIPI

PLA foci per cell (foci per cell): 2
Substance: Ephrin-B1 phosphorylated at Y324/329 (ligand)
